The target in data set [1] is E. coli DnaB replicative helicase (E. coli, UniProt P0ACB0 1-471). Nature of the data set: negative-stain electron microscopy.
Data set [2] deals with the molecule itself. Nature of the data set: negative-stain electron microscopy.

Sequence of E. coli DnaB replicative helicase (P0ACB0 whole entry): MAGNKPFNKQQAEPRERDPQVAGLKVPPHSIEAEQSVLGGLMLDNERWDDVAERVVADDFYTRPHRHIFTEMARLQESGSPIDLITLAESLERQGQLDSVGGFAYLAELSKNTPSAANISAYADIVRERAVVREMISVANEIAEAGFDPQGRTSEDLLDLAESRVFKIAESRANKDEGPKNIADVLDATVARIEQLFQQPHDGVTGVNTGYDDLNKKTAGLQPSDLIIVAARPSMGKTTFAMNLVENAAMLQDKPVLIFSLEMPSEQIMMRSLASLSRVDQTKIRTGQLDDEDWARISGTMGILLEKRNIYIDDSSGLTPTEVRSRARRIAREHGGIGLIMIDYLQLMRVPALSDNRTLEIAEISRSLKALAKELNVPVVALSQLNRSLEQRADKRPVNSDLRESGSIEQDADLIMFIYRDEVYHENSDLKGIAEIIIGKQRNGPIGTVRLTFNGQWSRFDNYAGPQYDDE

B1: E. coli DnaC helicase loader (natural protein, UniProt P0AEF0 1-245, looked up)
chain: MKNVGDLMQRLQKMMPAHIKPAFKTGEELLAWQKEQGAIRSAALERENRAMKMQRTFNRSGIRPLHQNCSFENYRVECEGQMNALSKARQYVEEFDGNIASFIFSGKPGTGKNHLAAAICNELLLRGKSVLIITVADIMSAMKDTFRNSGTSEEQLLNDLSNVDLLVIDEIGVQTESKYEKVIINQIVDRRSSSKRPTGMLTNSNMEEMTKLLGERVMDRMRLGNSLWVIFNWDSYRSRVTGKEY
Regarding B1, the stoichiometry N (usually the number of molecules, sites or subunits per partner or assembly) in data set [1] was 6 DnaC subunits per DnaB hexamer; in data set [2], 6.

(Values after publication PMC3670212 (Cell, 2013).)
